Results on 14 molecules are retold here after PMC7803741, “Structural basis of GABARAP-mediated GABAA receptor trafficking and functions on GABAergic synaptic transmission” (Nature Communications, 2021).

Details in all cases: both partners purified
The target of test [1] is T1, clathrin adaptor protein AP2 (AP2 μ1 subunit) (rat, UniProt P84092 158-435).
T1 construct: AP2 μ1 subunit as printed, rat, UniProt P84092; the limits rest on the primer list; also called AP2 WT; source: E. coli BL21 (DE3), purified (nickel-NTA, size exclusion)
T1 sequence (looked up): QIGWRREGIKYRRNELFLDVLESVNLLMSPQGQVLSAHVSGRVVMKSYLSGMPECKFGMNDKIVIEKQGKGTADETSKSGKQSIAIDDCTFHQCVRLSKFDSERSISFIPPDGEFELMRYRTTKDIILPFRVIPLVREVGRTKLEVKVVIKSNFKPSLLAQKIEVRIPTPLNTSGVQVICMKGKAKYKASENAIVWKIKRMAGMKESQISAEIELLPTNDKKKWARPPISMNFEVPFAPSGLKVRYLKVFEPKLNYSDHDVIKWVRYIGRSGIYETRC
As to the kind of experiment: ITC; VP-ITC at 25 °C; 50 mM Tris pH 7.8, 100 mM NaCl, 1 mM EDTA, 1 mM DTT; γ2 subunit protein or peptide (100-200 μM) injected into GABARAP, GABARAPL1 or AP2 (10-20 μM) in the cell; one-site binding model.

Test [2] has as its target T2, GABAA receptor-associated protein (GABARAP) (mouse, UniProt Q9DCD6 1-117).
T2 construct: GABARAP, mouse, UniProt Q9DCD6; also called GABARAP WT; source: E. coli BL21 (DE3), purified (nickel-NTA, size exclusion)
Described as above.

The target of test [3] is T3, GABAAR-associated protein (GABARAP) (mouse, UniProt Q9DCD6 1-117).
T3 construct: GABARAP, mouse, UniProt Q9DCD6; the thioredoxin-His6 tag was removed 'when needed'; also called GABARAP WT; source: E. coli BL21 (DE3), purified (nickel-NTA, size exclusion)
Briefly: ITC; VP-ITC, 25 °C; 50 mM Tris pH 7.8, 100 mM NaCl, 1 mM EDTA, 1 mM DTT; γ2 subunit protein or peptide (100–200 μM) injected into GABARAP, GABARAPL1 or AP2 (10–20 μM) in the cell; one-site binding model.

Test [4] has as its target T2, GABAA receptor-associated protein …. Briefly: ITC; VP-ITC at 25 °C; 50 mM Tris pH 7.8, 100 mM NaCl, 1 mM EDTA, 1 mM DTT; γ2 subunit protein or peptide (100-200 μM) injected into GABARAP, GABARAPL1 or AP2 (10-20 μM) in the cell; one-site binding model. This is another data set of the same source.
The target in test [5] is T4, clathrin adaptor protein AP2 (AP2 μ1 subunit as printed) (rat, UniProt P84092 1-435).
T4 construct: AP2 μ subunit (printed 'AP2 μ1 subunit'), rat, UniProt P84092; the full-length gene was amplified and shorter fragments were generated; Only the μ subunit is named as cloned; the text calls the protein 'AP2'; source: E. coli BL21 (DE3), purified (nickel-NTA, size exclusion)
T4 sequence (looked up): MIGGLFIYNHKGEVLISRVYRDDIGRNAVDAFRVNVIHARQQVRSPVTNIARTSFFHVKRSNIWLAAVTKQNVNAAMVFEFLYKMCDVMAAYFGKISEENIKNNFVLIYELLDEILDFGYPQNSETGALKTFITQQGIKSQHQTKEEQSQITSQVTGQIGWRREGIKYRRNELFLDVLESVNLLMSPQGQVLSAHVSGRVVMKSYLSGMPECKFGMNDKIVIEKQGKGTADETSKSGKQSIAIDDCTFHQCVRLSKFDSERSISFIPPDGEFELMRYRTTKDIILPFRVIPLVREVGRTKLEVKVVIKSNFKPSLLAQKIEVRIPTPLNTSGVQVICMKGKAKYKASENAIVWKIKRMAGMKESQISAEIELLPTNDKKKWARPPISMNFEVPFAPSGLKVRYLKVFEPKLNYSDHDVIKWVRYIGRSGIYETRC
Briefly: ITC; VP-ITC, 25 °C; 50 mM Tris pH 7.8, 100 mM NaCl, 1 mM EDTA, 1 mM DTT; γ2 subunit protein or peptide (100–200 μM) injected into GABARAP, GABARAPL1 or AP2 (10–20 μM) in the cell; one-site binding model.

Test [6] has as its target T5, GABARAPL1 (mouse, UniProt Q8R3R8 1-117).
T5 construct: GABARAPL1, mouse, UniProt Q8R3R8; also called GABARAPL1 WT; source: E. coli BL21 (DE3), purified (nickel-NTA, size exclusion)
Briefly: ITC; VP-ITC at 25 °C; 50 mM Tris pH 7.8, 100 mM NaCl, 1 mM EDTA, 1 mM DTT; γ2 subunit protein or peptide (100-200 μM) injected into GABARAP, GABARAPL1 or AP2 (10-20 μM) in the cell; one-site binding model.

Another test deals with T6, GABARAP E17A (mouse, UniProt Q9DCD6 1-117, E17A).
T6 construct: GABARAP, mouse, UniProt Q9DCD6, E17A; source: E. coli BL21 (DE3), purified (nickel-NTA, size exclusion)
Briefly: ITC; VP-ITC, 25 °C; 50 mM Tris pH 7.8, 100 mM NaCl, 1 mM EDTA, 1 mM DTT; γ2 subunit protein or peptide (100–200 μM) injected into GABARAP, GABARAPL1 or AP2 (10–20 μM) in the cell; one-site binding model.

The target in a further test is T7, GABARAP K66E (mouse, UniProt Q9DCD6 1-117, K66E).
T7 construct: GABARAP, mouse, UniProt Q9DCD6, K66E; source: E. coli BL21 (DE3), purified (nickel-NTA, size exclusion)
The description is as above.

The target of test [7] is T8, GABARAPL1 (mouse, UniProt Q8R3R8 1-117).
T8 construct: GABARAPL1, mouse, UniProt Q8R3R8; source: E. coli BL21 (DE3), purified (nickel-NTA, size exclusion)
Described as above.

Test [8] has as its target T3, GABAAR-associated protein (GABARAP). Briefly: ITC; giant ankyrin peptides and GABARAP, compared against γ2-GIM.

T3 sequence (Q9DCD6 whole entry): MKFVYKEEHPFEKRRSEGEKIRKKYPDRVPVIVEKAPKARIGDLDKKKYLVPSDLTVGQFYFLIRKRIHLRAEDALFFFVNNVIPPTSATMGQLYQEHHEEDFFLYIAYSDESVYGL
T2 sequence (Q9DCD6 whole entry): as above
T7 sequence (Q9DCD6 whole entry K66E): as the sequence (Q9DCD6 whole entry) above, with K66E counted along it
T6 sequence (Q9DCD6 whole entry E17A): as the sequence (Q9DCD6 whole entry) above, with E17A counted along it

B1: GABAA receptor γ2-GIM E402T (peptide, UniProt P22723-2 398-415, looked up)
chain: ERDETYGYECLDGKDCAS
notes: source: E. coli BL21 (DE3), purified (nickel-NTA, size exclusion)
Turning to B1, the Kd in test [1] was 0.56 ± 0.02 µM.

B2: GABAA receptor γ2 subunit 375-442 (full length TM3-TM4 ICD) (domain or fragment, mouse, UniProt P22723-2 375-442, looked up)
chain: PAPTIDIRPRSATIQMNNATHLQERDEEYGYECLDGKDCASFFCCFEDCRTGAWRHGRIHIRIAKMDS
notes: GABAA receptor γ2 subunit, mouse, UniProt P22723-2, residues 375-442 (TM3-TM4 intracellular domain); also called GABAA receptor γ2 375-442; source: E. coli BL21 (DE3), purified (nickel-NTA, size exclusion)
Turning to B2, the “stoichiometry N” value in [2] worked out at 0.53.

B3: full length TM3–TM4 ICD (residues 375–442) of the GABAA receptor γ2 subunit (domain or fragment, mouse, UniProt P22723-2 375-442, looked up)
chain: B2 chain
notes: GABAA receptor γ2 subunit, mouse, UniProt P22723-2, residues 375-442; also called TM3–TM4 intracellular loop; source: E. coli BL21 (DE3), purified (nickel-NTA, size exclusion)
With B3, in test [3], the Kd is approximately 8 µM.

B4: GABAA receptor γ2-GIM Y403E (peptide, UniProt P22723-2 398-415, looked up)
chain: ERDEEEGYECLDGKDCAS
notes: as for B1
As for B4, the Kd in test [1] worked out at 2.46 ± 0.22 µM; in [4], 1 ± 0.1 µM.

B5: γ2-GIM Y403E variant (phosphomimic mutation) (peptide, UniProt P22723-2 398-415, looked up)
chain: ERDEEEGYECLDGKDCAS
notes: as for B1
Regarding B5, the “fold increase of affinity against γ2-GIM WT” value in [3] is approximately 5 fold. Moreover, in [5], the “fold decrease of affinity against γ2-GIM WT” value is approximately 10 fold.

B6: GABAA receptor γ2 subunit 398-424 (domain or fragment, mouse)
chain: ERDEEYGYECLDGKDCASFFCCFEDCR
notes: as for B1
On to B6, for which, in [2], the Kd was 5 µM and the “stoichiometry N” value amounted to 0.92.

B7: GABAA receptor γ2 subunit GIM (GABARAP interacting motif, 398-415) (peptide)
chain: ERDEEYGYECLDGKDCAS
notes: also called γ2-GIM; source: E. coli BL21 (DE3), purified (nickel-NTA, size exclusion)
Regarding B7, in the test with GABARAPL1 [6], binding was characterised by a dissociation constant (Kd) of 5.7 µM and the “stoichiometry N” value came to 1.23.

B8: GABAA receptor γ2 subunit 404-442 (domain or fragment, mouse)
chain: GYECLDGKDCASFFCCFEDCRTGAWRHGRIHIRIAKMDS
notes: GABAA receptor γ2 subunit, mouse, UniProt P22723-2, residues 404-442; also called GABAA receptor γ2 404-442; source: E. coli BL21 (DE3), purified (nickel-NTA, size exclusion)
Turning to B8, in [2], the Kd was found to be 30 µM and the “stoichiometry N” value turned out to be 0.55.

B9: GABAA receptor γ2-GIM L408Q (peptide, UniProt P22723-2 398-415, looked up)
chain: ERDEEYGYECQDGKDCAS
notes: as for B1
In [1], B9 yielded a Kd of more than 50 µM.

B10: GABAAR γ2 subunit GIM (GABARAP interacting motif, 398–415) (peptide, UniProt P22723-2 398-415, looked up)
chain: ERDEEYGYECLDGKDCAS
notes: as for B7
Take B10: the binding result in the test with GABARAP E17A is given as “binds”. For the same molecule, the “fold weakening against GABARAP WT” value with GABARAP K66E was approximately 4 fold. The molecule also came in with a Kd with GABARAPL1 [7] of approximately 6.6 µM.

B11: GABAA receptor γ2 subunit 375-424 (domain or fragment, mouse, UniProt P22723-2 375-424, looked up)
chain: PAPTIDIRPRSATIQMNNATHLQERDEEYGYECLDGKDCASFFCCFEDCR
notes: as for B1
Consider B11, for which the “stoichiometry N” value in test [2] was determined as 0.92.

B12: AnkG-ER peptide (peptide)
peptide: PEDDWTRFSSEEIREARQAAASHAPS
On to B12, for which the “fold stronger affinity for GABARAP than γ2-GIM” value in test [8] is approximately 1000 fold.

B13: GABAA receptor γ2-GIM E406R (peptide, UniProt P22723-2 398-415, looked up)
chain: ERDEEYGYRCLDGKDCAS
notes: as for B1
In turn, B13 had a Kd in test [1] of 0.69 ± 0.06 µM.

B14: γ2-GIM E402T variant (peptide, UniProt P22723-2 398-415, looked up)
chain: ERDETYGYECLDGKDCAS
notes: as for B1
B14 returned a dissociation constant (Kd) in test [3] of 8.4 µM.
